Data on 14 molecules can be found in patent publication US20090298772A1 (UNIVERSITY OF CHICAGO, published 2009).

The assay deals with T1, menin (endogenous, 293 cell lysate) (UniProt O00255 1-610).
T1 construct: Endogenous protein of transfected 293 cells (a human cell line); Co-immunoprecipitated with FLAG-MLL 1-330; also called endogenous menin; product of the MEN1 tumor suppressor gene
T1 sequence (looked up): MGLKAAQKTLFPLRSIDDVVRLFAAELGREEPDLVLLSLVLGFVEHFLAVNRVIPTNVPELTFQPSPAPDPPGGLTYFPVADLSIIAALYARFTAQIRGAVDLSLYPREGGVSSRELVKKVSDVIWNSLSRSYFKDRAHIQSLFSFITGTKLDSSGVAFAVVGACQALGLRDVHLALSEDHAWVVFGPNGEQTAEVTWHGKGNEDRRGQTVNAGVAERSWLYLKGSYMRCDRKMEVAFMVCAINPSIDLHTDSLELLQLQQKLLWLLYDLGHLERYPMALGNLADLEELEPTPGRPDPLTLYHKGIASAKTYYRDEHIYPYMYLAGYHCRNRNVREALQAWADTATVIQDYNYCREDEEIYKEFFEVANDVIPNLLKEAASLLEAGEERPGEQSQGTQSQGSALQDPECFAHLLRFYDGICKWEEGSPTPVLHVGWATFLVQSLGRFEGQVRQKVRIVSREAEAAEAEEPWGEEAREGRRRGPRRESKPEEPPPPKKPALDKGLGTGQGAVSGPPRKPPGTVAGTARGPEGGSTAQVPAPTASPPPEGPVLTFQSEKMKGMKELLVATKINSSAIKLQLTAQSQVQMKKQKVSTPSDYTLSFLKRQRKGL
The assay is described as follows: competition with FLAG-MLL 1-330 for endogenous menin, co-IP / Western blot (FIG. 1); binding to menin shown only by blocking.

Description: Cell lysates were immunoprecipitated with anti-FLAG antibody (Sigma), separated by SDS-PAGE and blotted with an anti-menin antibody (Bethyl Laboratories Inc. or Santa-Cruz).

As for MAHSCRWRFPARPGTTGG (Synthetic peptide) [MLL peptide 1-18], the binding result is “binds”.
Take HSCRWRFPARPGTTGG (Synthetic peptide) [MLL peptide 3-18]: the binding result was “binds”.

B1: MLL 5-14 peptide (peptide)
peptide: CRWRFPARPG
notes: Synthetic peptide; also called MLL peptide 5-14
Regarding B1, the binding result was “binds”.
As for MAHSCRWRFPARPGTTGGGGGG (Synthetic peptide) [MLL peptide 1-22], the binding result is reported as “binds”.
On to MAHSCRWRFPARPGTTGGGGGGGRRG (Synthetic peptide) [MLL peptide 1-26], for which the binding result is reported as “binds”.
As for SCRWRFPARPG (Synthetic peptide) [MLL peptide 4-14], the binding result was “binds”.
As to AHSCRWRFPARPG (Synthetic peptide) [MLL peptide 2-14], the binding result is “binds”.
As for MAHSCRWRFPARPGTTGGGGGGGRRGLGGG (Synthetic peptide) [MLL peptide 1-30], the entry is “binds”; as for MAHSCRWRFPARPG (Synthetic peptide) [MLL peptide 1-14], “binds”; as for AHSCRWRFPARPGTTGG (Synthetic peptide) [MLL peptide 2-18], “binds”.
Consider HSCRWRFPARPG (Synthetic peptide) [MLL peptide 3-14], for which the binding result was “binds”.
In the case of MAHSCRWRFPARP (Synthetic peptide) [MLL peptide 1-13], the binding result is listed as “binds”.
Consider CRWRFPARPGTTGG (Synthetic peptide) [MLL peptide 5-18], for which the binding result is given as “binds”.
In the case of SCRWRFPARPGTTGG (Synthetic peptide) [MLL peptide 4-18], the binding result is “binds”.
